From paper PMC12578633

Experiments:
[1] = target: H5 A/Indonesia/05/2005 HA ectodomain (influenza A virus H5N1 A/Indonesia/05/2005)
[2] = target: H5 A/Sichuan/26221/2014 HA ectodomain (influenza A virus H5N6 A/Sichuan/26221/2014)
[3] = target: H5 A/Cambodia/2302009/2023 HA ectodomain (influenza A virus H5N1 A/Cambodia/2302009/2023)
[4] = target: H5 A/Victoria/149/2024 HA ectodomain (influenza A virus H5N1 A/Victoria/149/2024)

B1: 326-289.74 (IgG1) (antibody, V domains shown)
VH: QVQLVQSGAEVKKPGSSVKVSCKASGGTFSIYTFTWVRQAPGHGLEWMGGILPISGSAKYAQKFLGRVTITADESTSTVYMELSSLRSEDTAIYYCARDPYSNYFYGLDVWGQGTTVTVSS
VL: EIVLTQSPVTLSLSPGERATLSCRASQSVSRFLAWYQQKPGQAPRLLFYDASTRATGIPARFSGTGSGTDFTLTISGLEPEDFAVYYCQQRSNWPPEYSFGQGTKLEIK
Binder B1 has a neutralization IC80, R4ΔPB1 reporter virus H5N1 A/Indonesia/05/2005 [1] of 0.014 µg/mL, a neutralization IC80, R4ΔPB1 reporter virus H5N6 A/Sichuan/26221/2014 [2] of 0.006 µg/mL and a neutralization IC80, R4ΔPB1 reporter virus H5N1 A/Cambodia/2302009/2023 [3] of 0.133 µg/mL. The neutralization IC80, R4ΔPB1 reporter virus H5N1 A/Victoria/149/2024 [4] was 0.335 µg/mL.

B2: 326-366.26 (IgG1) (antibody, V domains shown)
VH: QMQLQESGPGLVKPSGTLSLTCAVSGGSISNSHWWSWVRQSPGKGLEWIGEIYHSGSTYYNPSLKSRLTISVDKSKNQFSLKLTSVTAADTAVYFCARGLGWEQGGYRAFDMWGQGTTVTVSS
VL: EIVMTQSPATLSVSPGERVTLSCRASQSVGSSLAWYQQKPGQAPRLLIYAASTRATGIPARFSGSGSGTEFTLTISSLQSEDFAVYYCQQHYNWPPLTFGGGTKVEIK
B2 was tested, and the neutralization IC80, R4ΔPB1 reporter virus H5N1 A/Indonesia/05/2005 [1] was 0.009 µg/mL, the neutralization IC80, R4ΔPB1 reporter virus H5N6 A/Sichuan/26221/2014 [2] was 0.008 µg/mL and the neutralization IC80, R4ΔPB1 reporter virus H5N1 A/Cambodia/2302009/2023 [3] was > 25 µg/mL. The neutralization IC80, R4ΔPB1 reporter virus H5N1 A/Victoria/149/2024 [4] was 0.193 µg/mL.
